From PMC3672139 come the findings set out here.

For this data set, the target named is T1, RB1 (human) (UniProt P06400).
T1 sequence: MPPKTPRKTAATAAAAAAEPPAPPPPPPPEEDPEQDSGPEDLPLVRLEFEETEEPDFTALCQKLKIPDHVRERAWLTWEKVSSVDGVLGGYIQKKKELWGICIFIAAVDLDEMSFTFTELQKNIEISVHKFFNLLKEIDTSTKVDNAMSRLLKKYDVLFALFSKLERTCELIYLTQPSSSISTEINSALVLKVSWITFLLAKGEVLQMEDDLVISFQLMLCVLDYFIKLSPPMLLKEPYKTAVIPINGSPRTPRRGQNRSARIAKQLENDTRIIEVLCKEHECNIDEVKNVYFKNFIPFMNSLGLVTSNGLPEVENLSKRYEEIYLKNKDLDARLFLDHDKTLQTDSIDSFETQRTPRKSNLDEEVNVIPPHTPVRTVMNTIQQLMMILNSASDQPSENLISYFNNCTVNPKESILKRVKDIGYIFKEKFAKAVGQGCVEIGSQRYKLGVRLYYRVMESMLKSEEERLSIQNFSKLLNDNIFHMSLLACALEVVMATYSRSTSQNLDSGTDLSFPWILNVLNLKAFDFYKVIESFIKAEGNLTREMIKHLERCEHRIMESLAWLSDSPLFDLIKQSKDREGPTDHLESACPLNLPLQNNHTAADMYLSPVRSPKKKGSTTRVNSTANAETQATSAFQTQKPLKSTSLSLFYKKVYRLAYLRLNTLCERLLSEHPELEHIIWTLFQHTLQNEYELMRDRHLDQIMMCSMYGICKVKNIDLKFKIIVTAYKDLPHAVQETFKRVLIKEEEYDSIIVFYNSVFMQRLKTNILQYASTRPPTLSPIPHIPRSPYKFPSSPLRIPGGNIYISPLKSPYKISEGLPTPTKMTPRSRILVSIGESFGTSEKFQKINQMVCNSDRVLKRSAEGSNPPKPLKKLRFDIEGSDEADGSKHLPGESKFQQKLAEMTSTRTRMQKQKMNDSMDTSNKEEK
As to the kind of experiment: SPR. Particulars: DNA immobilized; 650 mM NaCl; 10 mM Tris-HCl, 150 mM NaCl, 5 mM KCl, pH 7.4; EMSA room temperature 30 min, 12% PAGE in TBE; SPR 25 C (RB1 SPR with 650 mM NaCl). Background: A gel shift assay detects complexes by their altered migration in electrophoresis.

For the sequence CGGGGGGTTTTGGGCGGC [RB1 G4], the Kd (commonly the concentration at which binding is half-saturated) was 440 nM.
